Experiment: soluble on expression in E. coli; label from the status in PepcDB or PDB records

Sequence	soluble on expression in E. coli
MAWLRFFSRTLKSLPQISSSSPNPNPNFRTSPFSTSFLITKTPDKLKKKRKKPESARTKSIQHESTKLPHLESLVSRDAHFRFLIRSKEFISKQPERILRLDDAGKLYRELGFPRGRKVTKFIPKHPLIFQTYRHSDGKIWLGFTEFMEDLLDEEKGLMESMELDRVNCVRKLLMMTKDKRILLSKIHHTRLLFGIPEDFRDRVAKYPDYFRVVTGGDGNRVLELVNWDTNLAHGKELELEEKDTRKLNLLNTFPLVSPYSDGWKLDVWSLEAEKYRVGIVHEFLNLTLEKRASIHHIVEFKDEFSLTRQTYQMLKKQSMSFYLAGTEMNWTVFLKDAYDENGVLVSKDPQVVFNEKLYKYADMQQMEQVG	soluble
MVGQREPAPVEEVKPAPEQPAEPQQPVPTVPSVPTIPQQPGPIEHEDQTAPPAPHIRHYDWNGAMQPMVSKMLGADGVTAGSVLLVDSVNNRTNGSLNAAEATETLRNALANNGKFTLVSAQQLSMAKQQLGLSPQDSLGTRSKAIGIARNVGAHYVLYSSASGNVNAPTLQMQLMLVQTGEIIWSGKGAVSQQLEHHHHHH	soluble
MSLLDFGFDESRIYFTVTDRFFNGDKNNDDPHGNNYDKKNPYTYHGGDLKGLTDKISYLKELGINTIWITPIVENTDFNQMFSQGKTQYSCHGYWAKDFEKLDPHLGTMDDLKTLIDTAHDSGIKIMVDVVLNHAGYGMKNKDNSGANNSPTEEDIAKFKGMFRENPGNDFITQESAGLPDFKTEDPEVREKLIEWQTGWIERSKTEKGNTIDYFRVDTVKHVDNTTWKAFKNKLTEINPSFKTIGEYFGADINNDGGQLQNGQMDALLDFGYKGKARDFVNGNIEGTSAYLDDRASKISNTNLMGQFLSSHDEDGFLKTVGDDLGKQMLAASLQITDKGIPVIYYGEELGMSGWNGFEQGDQNRYDMDFERLNDPKYKKVHDHYEKLLNIRKEYSKIFSKGNRKTIAGNNEEGYSVVLRSYNGKEITPMNLSENNEEKNITNGQNLFVVLNTKNEDKDISFKTNFKEGEKVKDLYSGNEYSIGKDGKVTVKVPSKEGHHHHHH	not soluble
MSKRLPPLNALRVFDAAARHLSFTRAAEELFVTQAAVSHQIKSLEDFLGLKLFRRRNRSLLLTEEGQSYFLDIKEIFSQLTEATRKLQARSAKGALTVSLPPSFAIQWLVPRLSSFNSAYPGIDVRIQAVDRQEDKLADDVDVAIFYGRGNWPGLRVEKLYAEYLLPVCSPLLLTGEKPLKTPEDLAKHTLLHDASRRDWQAYTRQLGLNHINVQQGPIFSHSAMVLQAAIHGQGIALANNVMAQSEIEAGRLVCPFNDVLVSKNAFYLVCHDSQAELGKIAAFRQWILAKAATEQEKFRFRYEQ	not soluble
MPAGFTHFRLVTRNNMKSLTTETALDILIAWLQDNIDCGSGIIFDNDEDKTDSAALLPCIEQAREDVRTLRHLQLLHQNR	soluble
MGSDKIHHHHHHMNILIVYGTTEGQTGKIAARTATHLRERGHQVELRDSAALASDLKLGHFDAFVIAASVHQEHHQETVTNFVFAHHEALSTKPSALISVSLSAALGDQKKDAQKYVDRFVSVTDWQPSMTLLLGGALRFNKYDYFQEQFVKFVVMKSGDPSPERDHEFTDWNALANFADRFLETAG	not soluble
MMNQLRVTRKEPVKIRIQRKTSQNHAKGIEEMEMAVAVGVKMGQDAVEGNWKRKIIPKKTAIREILKSDEEITVRHLKIGLKSRRLPSCLIRKEPKDNNVSYEETGEGEYFEEENRKNSNNANSSNSRNTGRGNKGGKERESLNDNESSNEETEGRRSVKKTNTLNEDNNGNSIRKESNLSNDEETDEVVDTHRINTEDDEEDEEKPPTEKGTPKRKDRKSDSRSTSKGFGSGGRGRAEYTEDGDDDESNRRSVNFEKDGNGRMVKTETERSSTHAQDYDKKGSKKKKHRVSENGSEEEEVSTSFSSSSSKSSSSSSLSRRTTWDGNNNNTNRRRRNRFD	not soluble
MGSDKIHHHHHHMTIYYNEMVDGGLVREPYAMLSDWIETMPAEIRQMKQAEAEALFRRIGITFAVYGEGGDPDRLIPFDMMPRVFLQGEWRRLERGIKQRARGLNAFLRDVYGRGEIVRAGRIPAPLVYRNAAYEKAVVGFVPPRGVFSHIVGIDIVRTGRDEFHVLEDNCRTPSGVSYMLENREIMMRMFPALFRNNRIEPVDQYPELLRRTLASVAPAKCEGEPTVVILTPGHYNSAYYEHSFLANLMGVELVEGSDLFVDGGFVYMRTTQGPKRVDVIYRRIDDQFLDPLCFRRDSMLGVPGLMDVWRSGGVSIASAPGAGVADDKAVYTFVPEMIRFYLGEEPILNNVQTWTLWKDDDYRYVMANLKDLVVKEVHGSGGYGMLIGPRATKAEIEAFAERIKADPGNYIAQPTLALSTSPTFVDEGVAPRHVDLRPFCLCGDRIELVPGGLTRVALREGSLVVNSSQGGGVKDTWVLSE	not soluble
MMRISEKGITLIKEFEGCSLKAYPDPGTGGDPWTIGYGWTHSVDGKPVKPGMMIDEATAERLLKTGLVGYENDVSRLVKVKLTQGQFDALVSFAYNLGARTLSTSTLLRKLNAGDYAGAADEFLRWNKAGSKVLNGLTRRREAERALFLS	not soluble
MKIGIIGAGLGGLLSGAILSKEHSITIYEKLPFVGGRFTNIPYKGFQLTTGALHMIPHGNEGYLAQTLRRAGSNVKIVNSEPDGYFRINGKNHEYKDIFGLVSAKDKLKALKLAASLKLGKIDKNMPFGEFLEDIPLALDVGNSFSGWALSLNAYDTPMSEIIEISKLYHKFGGPGIPVGGCKGVIDSLVEIINKNGGKIYTSHAIEKIEVEENNVFLDSEQFDIVISNASPKLTEKMSNIKFIEKEPVPSKGIKINVASKLSLVDGASVIFTTDCERINGLNQPSNVDRSLAKEDYNLIMLHATQIKNNTKEEISLALNDIESLFGGKDYEVISIQSYGNGWPVNHASNGTDLNPIVKDNLLLVGDGVKGVGGIEVEGVAMSVIAVLNHIEKLKK	soluble
MGSDKIHHHHHHMARHGKGPKTNKKKLAPEKERFIQCCADITLELTDSLTSGTTREINLNGLITKYSKKYKLKQQPRLTDIINSIPDQYKKYLLPKLKAKPVRTASGIAVVAVMCKPHRCPHIAYTGNICVYCPGGPDSDFEYSTQSYTGYEPTSMRAIRARYDPYEQARGRVEQLKQLGHSIDKVEYVLMGGTFMSLPKEYREDFIVKLHNALSGFNGNDIDEAILYSQQSLTKCVGITIETRPDYCTQTHLDDMLKYGCTRLEIGVQSLYEDVARDTNRGHTVRSVCETFAVSKDAGYKVVSHMMPDLPNVGMERDIEQFKEYFENPDFRTDGLKIYPTLVIRGTGLYELWKTGRYKSYSANALVDLVARILALVPPWTRIYRVQRDIPMPLVTSGVDNGNLRELALARMKDLGTTCRDVRTREVGIQEVHHKVQPDQVELIRRDYYANGGWETFLSYEDPKKDILIGLLRLRKASKKYTYRKEFTSQRTSIVRELHVYGSVVPLHSRDPRKFQHQGFGTLLMEEAERIAKEEHGSEKISVISGVGVRNYYGKLGYELDGPYMSKRI	not soluble
MGSDKIHHHHHHMSQTLLPPGWVEKLCDPYAVLGISVIADDRQIFKRYHTLAKLLHPDRHAKNCNPDQKLATAIFSHLINPAYQQLKHRQKRLIAIAMLRSDARVSEQKPLSSQSAIAQEIMKMSTPEAELFYEEAIACYAEAQYKSLDQFYQVTQQITILNLVYLRLHKPDLFLPQKAVAIIPEVEVNPVELTLTDVKPVLTNYAQRHYQRAIEYVRLGKWVIAVQELRDAIKLEPNNSDYYALLGLVHLKQKFMGMARVYICQALKLNPQNSLALKYAPELKIKLGENTNPKSMAKAVSIAALLSRFTQRKGSQVKC	not soluble
ILYLHGGYNTLQPSPFHWRLLDKLTLNTLHEVVLPIYPKSPDYHYLETFKAIRDVYNQLVEEVGANNIVMMGDGSGGGLALSFVQSLINDNQEVPRKLFLLSPLLDATLTNPNITKTLEENDILVSRFGVHQLMKSWTNDLPLSDARISPLYGTLKGLPPIYMYGGGREILSPDMHAFTHALEECGNDVEFKEYPKMVHDFPIYPIRQSHKVLKHITKSI	not soluble
FSDFIANHIFMESRCEGIIRITAISLPFMCIHNCLSNYYYSQKESFLPASSQLVEQLVRIGTIILYVRIKNVSTISIADAVTGNIFGEFAAATYCAIPLFFRSIHNKSMMQKLSCSLREYRYIVKYAFPINANQTVLHLLEGAEAILIPAILCMHGLTKDNAISQFGILTGM	not soluble
MAHHHHHHMSNCPHPRGDCGGRSVAAEGTLVPSHISCGDFTFQGGQTPRKELAGVHTSALMQPGLSSAVPSNSILSFSHDVVAAGNGMPPSVSPASSEKKKVLGTSGGGGSAEGTLNSANSSDQGPTGTPVKRNTKPLVPQQHVTKCQLTPNDAAASGLLITTPETPCNEKNPVYAAVGAARQSRERMISAENFTVIQPGGKLRTHLPPQRESGSDKKGKK	soluble
MDLTLIIDNYDSFVYNIAQIVGELGSYPIVIRNDEISIKGIERIDPDRLIISPGPGTPEKREDIGVSLDVIKYLGKRTPILGVCLGHQAIGYAFGAKIRRARKVFHGKISNIILVNNSPLSLYYGIAKEFKATRYHSLVVDEVHRPLIVDAISAEDNEIMAIHHEEYPIYGVQFHPESVGTSLGYKILYNFLNRV	soluble
MSTAQAVKIGIAEMEVVIAPNVIRTCGLGSCVGVVIYDAGKAVAGMAHVMLPHSSMARGGVINAAKYADTAVEALVQLVIAAGGRKGMLKAKLAGGAQMFSFSTVGGDMMRIGARNVEEVKKQLERLHIPVVAEDVGGHSGRTIEFNPQTGVLSIRTAAQEIKEI	not soluble
VSDVPRDIEVVAVTPTSALISWDAPAVTIRYIRLTYGETGGNSPVQEITLPGSKSTYTISGLKPGTDYTVTLYSVTGRGDSPASSKPASINFRTEI	soluble
MGSDKIHHHHHHMADNFLSQDEVDALLKGVSGEVDDAPQEAVDTGGPRPYNLATQERIVRGRMPTLEIINERFARLLRIGLYNFLRRGVEISVGPVRVSKYSEFIRNLVVPTNLNLVQFKPLRGTALMIFNPDLVFLMVDNLFGGDGRFHTRVEGRDFTQTEHRIIQRILNIVFEAYGKSWEPVYPIEFEFIRSEMNTQFANIATPNEVVVAVTFAIELGQISGEMHFCMPYSMIEPIKDLLTSSLQAENLEVDKRWIRLMRQQIQLAEVEIVADLGTAEVSLRDIVNLKVGDVIPLDIPPTIEAKVDGVPVMECAYGKFNGQYTLRVEKLLSTSAVEPKTGEQHV	not soluble
MSLTEYVDAVPAASMTVCTVQHTDTTPQHSINEDRVIPLDSNKGIADMEFGDAHTLAHRVSASAERMYRFSSIETTQFIKILLRKMAARMASLASCHTHVYASSHSLPWDSACEHYIFGMRRILIEGHHHHHH	not soluble
